# Data from article PMC7895943 (Communications Biology, 2021).
# B1: Tat-βsyn-degron peptide (peptide)
# peptide: YGRKKRRQRRRRTKSGVYLVGRRRG
# notes: Tat plasma membrane transduction domain (HIV-1 Tat stretch); degron, proteasomal targeting signal; also called α-synuclein knockdown peptide; α-synuclein targeting peptide; source: synthetic peptide (GL Biochem, Shanghai)
# Target: purified recombinant human α-synuclein (N-terminal histidine tagged) (human, UniProt P37840 1-140)
# Assay: SPR; Biacore 3000; about 1500 RU of α-synuclein amine-coupled to a CM5 chip; peptides in two-fold dilutions (0.20-12.50 µM, in duplicate) injected 3 min at 30 µl/min, then 3 min dissociation; HBS pH 7.4 (10 mM HEPES, 150 mM NaCl, 3 mM EDTA, 0.005% P20); double-referenced; report points 20 s into dissociation (200 s)
# Settings: both partners purified
binder,measurement,value
B1,binding result,binds
